# T1: MC1 R25Q (Methanosarcina thermophila CHTI55, UniProt P12770 1-93, R25Q)
# T1 sequence: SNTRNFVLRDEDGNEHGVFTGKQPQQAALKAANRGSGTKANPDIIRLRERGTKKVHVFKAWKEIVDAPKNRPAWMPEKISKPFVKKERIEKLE
# T2: MC1 R71A (Methanosarcina thermophila CHTI55, UniProt P12770 1-93, R71A)
# T2 sequence: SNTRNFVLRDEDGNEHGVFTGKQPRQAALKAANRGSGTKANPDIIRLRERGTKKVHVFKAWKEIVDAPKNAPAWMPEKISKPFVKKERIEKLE
# T3: MC1 W74F (Methanosarcina thermophila CHTI55, UniProt P12770 1-93, W74F)
# T3 sequence: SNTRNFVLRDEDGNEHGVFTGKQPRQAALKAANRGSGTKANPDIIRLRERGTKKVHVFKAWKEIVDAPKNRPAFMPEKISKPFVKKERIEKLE
# T4: MC1 Q23E (Methanosarcina thermophila CHTI55, UniProt P12770 1-93, Q23E)
# T4 sequence: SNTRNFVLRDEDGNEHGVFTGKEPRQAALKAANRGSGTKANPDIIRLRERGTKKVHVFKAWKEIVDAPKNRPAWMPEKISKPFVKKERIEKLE
# T5: MC1 P72A (Methanosarcina thermophila CHTI55, UniProt P12770 1-93, P72A)
# T5 sequence: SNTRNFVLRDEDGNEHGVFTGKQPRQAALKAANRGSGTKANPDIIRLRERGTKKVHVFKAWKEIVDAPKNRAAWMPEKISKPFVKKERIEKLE
# T6: MC1 I89A (Methanosarcina thermophila CHTI55, UniProt P12770 1-93, I89A)
# T6 sequence: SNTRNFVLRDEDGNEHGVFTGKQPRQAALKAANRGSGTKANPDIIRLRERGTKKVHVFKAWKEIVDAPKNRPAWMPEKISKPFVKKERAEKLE
# T7: MC1 R25A (Methanosarcina thermophila CHTI55, UniProt P12770 1-93, R25A)
# T7 sequence: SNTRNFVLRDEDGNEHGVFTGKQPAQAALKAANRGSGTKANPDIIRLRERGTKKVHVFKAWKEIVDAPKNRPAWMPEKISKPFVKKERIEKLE
# How the values were obtained:
# Assay in all cases: EMSA; EMSA: 10 mM Tris-HCl pH 7.5, 150 mM NaCl, 1 mM EDTA, 15 ug/ml BSA, 8% glycerol, 15 min at 20 C, 0.1 nM DNA, TBE gel; NMR PRE: 10 mM phosphate pH 6, 100 mM NaCl, 10% D2O
# Settings in all cases: protein: recombinant; label: 5'-32P on one strand; blunt
# MC1 R25Q = target: T1, MC1 R25Q
# MC1 R71A = target: T2, MC1 R71A
# MC1 W74F = target: T3, MC1 W74F
# MC1 Q23E = target: T4, MC1 Q23E
# MC1 P72A = target: T5, MC1 P72A
# MC1 I89A = target: T6, MC1 I89A
# MC1 R25A = target: T7, MC1 R25A
binder,measurement,setting,value
26 bp EMSA duplex (dsDNA) DNA 1: GCCTCAAAAACACACACCCCCGACAG DNA 2: CTGTCGGGGGTGTGTGTTTTTGAGGC,Kd,MC1 R25Q,552 ± 34 nM
same,Kd,MC1 R71A,3.6 ± 0.2 nM
same,Kd,MC1 W74F,8.4 ± 1 nM
same,Kd,MC1 Q23E,9.05 ± 2 nM
same,Kd,MC1 P72A,4.2 ± 0.5 nM
same,Kd,MC1 I89A,15.4 ± 2 nM
same,Kd,MC1 R25A,161 ± 14 nM

# — article PMC3928310, “Model of a DNA-Protein Complex of the Architectural Monomeric Protein MC1 from Euryarchaea”
